Measured values as given in patent US20190127457A1 (Hoffmann-La Roche, published 2019).

Target: T1, human neonatal Fc-receptor (FcRn) (human, UniProt P55899 24-297; P61769 21-119)
T1 construct: also called human FcRn; huFcRn
Assay: symmetric HHY-AAA mutation

T1 sequence (P55899 24-297 limits assumed, chain 1 of 2): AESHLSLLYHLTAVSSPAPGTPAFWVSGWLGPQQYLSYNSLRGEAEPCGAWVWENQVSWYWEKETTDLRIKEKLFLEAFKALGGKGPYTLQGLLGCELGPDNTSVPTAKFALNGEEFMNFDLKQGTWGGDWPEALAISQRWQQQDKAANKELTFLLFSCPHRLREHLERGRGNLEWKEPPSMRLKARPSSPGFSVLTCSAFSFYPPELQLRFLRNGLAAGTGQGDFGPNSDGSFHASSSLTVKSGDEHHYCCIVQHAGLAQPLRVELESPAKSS
T1 sequence (P61769 21-119 limits assumed, chain 2 of 2): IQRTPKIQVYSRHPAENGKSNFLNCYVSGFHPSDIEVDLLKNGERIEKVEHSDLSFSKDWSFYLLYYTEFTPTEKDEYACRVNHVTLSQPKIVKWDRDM

B1: IGF-1R 0045 (antibody, human IgG1, kappa)
light: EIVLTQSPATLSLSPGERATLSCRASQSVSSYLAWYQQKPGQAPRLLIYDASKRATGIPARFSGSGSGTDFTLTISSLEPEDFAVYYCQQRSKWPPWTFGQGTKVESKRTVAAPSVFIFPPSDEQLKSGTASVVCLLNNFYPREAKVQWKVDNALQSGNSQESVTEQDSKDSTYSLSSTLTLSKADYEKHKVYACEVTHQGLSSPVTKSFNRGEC
heavy: QVELVESGGGVVQPGRSQRLSCAASGFTFSSYGMHWVRQAPGKGLEWVAIIWFDGSSTYYADSVRGRFTISRDNSKNTLYLQMNSLRAEDTAVYFCARELGRRYFDLWGRGTLVSVSSASTKGPSVFPLAPSSKSTSGGTAALGCLVKDYFPEPVTVSWNSGALTSGVHTFPAVLQSSGLYSLSSVVTVPSSSLGTQTYICNVNHKPSNTKVDKKVEPKSCDKTHTCPPCPAPELLGGPSVFLFPPKPKDTLMISRTPEVTCVVVDVSHEDPEVKFNWYVDGVEVHNAKTKPREEQYNSTYRVVSVLTVLAQDWLNGKEYKCKVSNKALPAPIEKTISKAKGQPREPQVYTLPPSRDELTKNQVSLTCLVKGFYPSDIAVEWESNGQPENNYKTTPPVLDSDGSFFLYSKLTVDKSRWQQGNVFSCSVMHEALANHATQKSLSLSPG
notes: Roles inferred; also called <IGF-1R> IgG1 with H310A, H433A, Y436A; anti-IGF-1R IgG1 with HHY-AAA mutation
binding result: no binding
